Results: patent US20020058275A1, “Compositions, kits, and methods for effecting adenine nucleotide modulation of DNA mismatch recognition proteins” (Thomas Jefferson University, priority 1997, published 2002)

Experiments:
GST-hMSH2 = molecular target: T1, GST-hMSH2 (Homo sapiens, UniProt P43246); test: GST fusion protein interaction assay; format: binding; details: 35S-labeled IVTT protein as prey
T1 construct: made in house; host or cells: E. coli (XL-blue), pGEX
Experimental: (§1) An overnight culture of E. coli XL-blue cells which harbored pGEX-hMSH(X) (i.e. ‘X’ being 2, 3, or 6) was grown in LB with […] ampicillin. 50 milliliter of Luria broth containing ampicillin was inoculated with 1 milliliter of the overnight culture, and the culture was incubated until the optical density, as assessed at 600 nanometers, was about 0.5. IPTG was added to a final concentration of 0.1 millimolar, and the culture container placed in a shaker at 30° C. for 2 hours to generate induced cells. […] GST-fusion protein levels were quantified as described herein. […] GST-fusion protein expression levels were quantitated by Coomassie Brilliant Blue staining of protein separated by SDS-PAGE gels, using BSA as a standard.
(§2) In vitro transcription and translation (IVTT) reactions involving ^35S-Methionine were performed with pET-hMSH(Y) (i.e. where ‘Y’ was 2, 3, or 6) using purified DNA according to the manufacturers recommendations. […] This value was calculated using the specific activity of ^35 S-Methionine, correcting for the number of methionine residues in each IVTT construct and using SDS-PAGE and a Molecular Dynamics Phosphorlmager device equipped with ImageQuant software (Sunnyvale, Calif.). […]

GST-hMSH6 = molecular target: T2, GST-hMSH6 (Homo sapiens, UniProt P52701); test: GST fusion protein interaction assay; format: binding; details: 35S-labeled IVTT protein as prey
T2 construct: GST fusion proteins which comprised either full length hMSH3 or full length hMSH6; made in house; host or cells: E. coli (XL-blue), pGEX
Experimental: as §1, §2

T1 sequence (P43246 whole entry, the tested form may be a part): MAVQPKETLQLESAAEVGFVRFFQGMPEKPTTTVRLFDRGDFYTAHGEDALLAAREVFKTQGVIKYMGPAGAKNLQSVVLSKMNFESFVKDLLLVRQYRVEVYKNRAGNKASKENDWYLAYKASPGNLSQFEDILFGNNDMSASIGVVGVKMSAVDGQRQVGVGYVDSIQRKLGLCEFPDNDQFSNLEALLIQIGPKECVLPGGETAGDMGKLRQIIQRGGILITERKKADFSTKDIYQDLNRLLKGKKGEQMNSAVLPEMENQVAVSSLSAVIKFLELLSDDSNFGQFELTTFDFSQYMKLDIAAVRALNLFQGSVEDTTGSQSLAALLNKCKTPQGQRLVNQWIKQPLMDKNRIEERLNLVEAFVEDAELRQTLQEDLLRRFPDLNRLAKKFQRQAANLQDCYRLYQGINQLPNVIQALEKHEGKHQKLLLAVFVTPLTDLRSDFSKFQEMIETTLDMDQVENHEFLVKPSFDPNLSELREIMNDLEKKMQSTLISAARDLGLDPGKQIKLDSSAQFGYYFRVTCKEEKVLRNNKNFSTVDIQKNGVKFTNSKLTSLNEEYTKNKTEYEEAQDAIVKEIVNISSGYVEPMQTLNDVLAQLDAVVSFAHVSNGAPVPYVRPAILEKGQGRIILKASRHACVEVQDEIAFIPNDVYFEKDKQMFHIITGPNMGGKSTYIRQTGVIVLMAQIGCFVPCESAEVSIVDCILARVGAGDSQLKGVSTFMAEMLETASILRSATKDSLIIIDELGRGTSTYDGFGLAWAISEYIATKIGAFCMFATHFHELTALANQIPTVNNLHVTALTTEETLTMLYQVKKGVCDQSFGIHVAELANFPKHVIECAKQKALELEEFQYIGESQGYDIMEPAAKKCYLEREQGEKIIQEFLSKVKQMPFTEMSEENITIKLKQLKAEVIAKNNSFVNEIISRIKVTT
T2 sequence (P52701 whole entry, the tested form may be a part): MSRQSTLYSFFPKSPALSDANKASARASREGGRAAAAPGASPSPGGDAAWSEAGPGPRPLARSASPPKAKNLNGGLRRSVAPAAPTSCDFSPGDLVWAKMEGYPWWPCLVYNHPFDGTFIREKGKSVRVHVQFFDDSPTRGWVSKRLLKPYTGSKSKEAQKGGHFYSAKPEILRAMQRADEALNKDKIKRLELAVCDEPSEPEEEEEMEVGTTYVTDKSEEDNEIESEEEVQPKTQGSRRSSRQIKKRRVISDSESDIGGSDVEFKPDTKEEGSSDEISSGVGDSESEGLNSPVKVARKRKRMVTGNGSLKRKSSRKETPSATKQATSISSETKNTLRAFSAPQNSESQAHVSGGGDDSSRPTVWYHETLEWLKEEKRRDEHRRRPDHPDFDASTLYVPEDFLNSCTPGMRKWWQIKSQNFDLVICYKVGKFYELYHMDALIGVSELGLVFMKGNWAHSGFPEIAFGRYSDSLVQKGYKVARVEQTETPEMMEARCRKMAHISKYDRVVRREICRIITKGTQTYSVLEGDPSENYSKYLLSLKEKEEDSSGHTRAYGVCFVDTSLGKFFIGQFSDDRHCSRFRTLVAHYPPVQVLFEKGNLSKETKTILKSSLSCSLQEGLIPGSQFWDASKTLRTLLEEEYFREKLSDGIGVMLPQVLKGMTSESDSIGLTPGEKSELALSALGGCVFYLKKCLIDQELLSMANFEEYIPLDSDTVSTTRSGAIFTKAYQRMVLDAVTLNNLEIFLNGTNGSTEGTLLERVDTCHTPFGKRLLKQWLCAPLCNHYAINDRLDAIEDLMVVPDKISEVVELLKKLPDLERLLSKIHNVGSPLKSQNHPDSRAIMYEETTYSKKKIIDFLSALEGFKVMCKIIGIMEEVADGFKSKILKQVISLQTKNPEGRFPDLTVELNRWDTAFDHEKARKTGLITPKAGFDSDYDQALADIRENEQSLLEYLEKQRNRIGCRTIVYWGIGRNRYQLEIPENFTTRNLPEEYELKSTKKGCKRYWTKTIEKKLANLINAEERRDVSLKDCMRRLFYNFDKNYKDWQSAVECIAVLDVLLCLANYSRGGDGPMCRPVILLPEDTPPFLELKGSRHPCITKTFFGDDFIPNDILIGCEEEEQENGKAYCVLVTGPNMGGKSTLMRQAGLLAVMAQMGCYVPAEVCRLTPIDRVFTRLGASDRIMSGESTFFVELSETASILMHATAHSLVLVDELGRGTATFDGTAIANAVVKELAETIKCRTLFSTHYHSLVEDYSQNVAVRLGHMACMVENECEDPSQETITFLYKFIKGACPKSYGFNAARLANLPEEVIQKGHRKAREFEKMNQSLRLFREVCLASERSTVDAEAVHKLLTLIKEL

interaction with GST-hMSH2 fusion protein (GST-hMSH2): did not interact | interaction with GST-hMSH6 fusion protein (GST-hMSH6): did not interact
B1: hMSH5: human MutS homolog, putative 834-amino-acid protein encoded by clone b29 (SEQ ID NO: 29) (protein)
chain: MASLGANPRRTPQGPRPGAASSGFPSPAPVPGPREAEEEEVEEEEELAEIHLCVLWNSGYLGIAYYDTSDSTIHFMPDAPDHESLKLLQRVLDEINPQSVVTSAKQDENMTRFLGKLASQEHREPKRPEIIFLPSVDFGLEISKQRLLSGNYSFIPDAMTATEKILFLSSIIPFDCLLTVRALGGLLKFLGRRRIGVELEDYNVSVPILGFKKFMLTHLVNIDQDTYSVLQIFKSESHPSVYKVASGLKEGLSLFGILNRCHCKWGEKLLRLWFTRPTHDLGELSSRLDVIQFFLLPQNLDMAQMLHRLLGHIKNVPLILKRMKLSHTKVSDWQVLYKTVYSALGLRDACRSLPQSIQLFRDIAQEFSDDLHHIASLIGKVVDFEGSLAENRFTVLPNIDPEIDEKKRRLMGLPSFLTEVARKELENLDSRIPSCSVIYIPLIGFLLSIPRLPSMVEASDFEINGLDFMFLSEEKLHYRSARTKELDALLGDLHCEIRDQETLLMYQLQCQVLARAAVLTRVLDLASRLDVLLALASAARDYGYSRPRYSPQVLGVRIQNGRHPLMELCARTFVPNSTECGGDKGRVKVITGPNSSGKSIYLKQVGLITFMALVGSFVPAEEAEIGAVDAIFTRIHSCESISLGLSTFMIDLNQVAKAVNNATAQSLVLIDEFGKGTNTVDGLALLAAVLRHWLARGPTCPHIFVATNFLSLVQLQLLPQGPLVQYLTMETCEDGNDLVFFYQVCEGVAKASHASHTAAQAGLPDKLVARGKEVSDLIRSGKPIKPVKDLLKKNQMENCQTLVDKFMKLDLEDPNLDLNVFMSQEVLPAATSIL
modifications: left off: a dimerising Fc or GST; large carriers; small tags and cut ends
